Reference: PMC10450164 (Nucleic Acids Research, 2023)

B1: TFAP2B DBD-HSH tandem domain (aa 219-457) (domain or fragment)
chain: not shown
B2: TFAP2A DBD-HSH tandem domain (aa 203-420) (domain or fragment)
chain: not shown
B3: TFAP2A HSH domain (aa 279-411) (domain or fragment, human, UniProt P05549 279-411, looked up)
chain: GRRKAANVTLLTSLVEGEAVHLARDFGYVCETEFPAKAVAEFLNRQHSDPNEQVTRKNMLLATKQICKEFTDLLAQDRSPLGNSRPNPILEPGIQSCLTHFNLISHGFGSPAVCAAVTALQNYLTEALKAMDK

Key:
[1] = target: the molecule itself; assay: crystal structure
[2] = target: the molecule itself; assay: SEC

Protein	binding result [1]	stoichiometry N [2]
B1	binds	
B2		2
B3		2
